By Kd is commonly meant a measure of binding affinity in units of concentration. A lower Kd goes with a tighter complex. What is called IC50 is the concentration that inhibits the measured activity by half. Low readings indicate greater potency in that assay, high ones weaker potency in that assay.

Bounds are passed on as bounds.

In one assay the target is HLA-A*02:10. The assay is described as follows: IEDB peptide-MHC binding, purified MHC/direct/fluorescence; filed as Kd, often an IC50 or EC50 that approximates it; ≥ and ≤ were set here for values at or beyond the usual limits of such assays. To be noted: source organism: Escherichia coli O157:H7 str. EC869.
For another assay, the target named is HLA-A*02:11. The assay is described as above. To be noted: source organism: Escherichia coli O157:H7 str. EC869.
In another assay the target is HLA-A*02:50. Described as above. To be noted: source organism: Escherichia coli O157:H7 str. EC869.
Assay [1] deals with HLA-A*23:01. The description is as above. To be noted: source organism: Escherichia coli O157:H7 str. EC869.
Assay [2] deals with HLA-A*24:03. Described as above. The settings on record: source organism: Escherichia coli O157:H7 str. EC869.
Assay [3] addresses HLA-A*29:02. Described as above. The settings on record: source organism: Escherichia coli O157:H7 str. EC869.
In the next assay the target is HLA-A*30:01. The assay is described as above. The settings on record: source organism: Escherichia coli O157:H7 str. EC869.
For assay [4], the target named is HLA-B*07:02. The assay is described as above. The settings on record: source organism: Escherichia coli O157:H7.
The next assay has as its target HLA-B*15:01. The assay is described as above. The settings on record: source organism: Escherichia coli O157:H7 str. EC869.
Assay [5] addresses HLA-B*18:01. The assay is described as above. To be noted: source organism: Escherichia coli O157:H7 str. EC869.
The target of a further assay is HLA-B*40:01. The assay is described as above. To be noted: source organism: Escherichia coli O157:H7 str. EC869.
The next assay has as its target HLA-B*44:02. The assay is described as above. To be noted: source organism: Escherichia coli O157:H7 str. EC869.
The target in assay [6] is HLA-B*51:01. Described as above. To be noted: source organism: Escherichia coli O157:H7.
Assay [7] concerns the target HLA-B*57:01. The description is as above. To be noted: source organism: Escherichia coli O157:H7 str. EC869.
Assay [8] addresses HLA-B*58:01. The assay is described as above. The settings on record: source organism: Escherichia coli O157:H7 str. EC869.
A further assay has as its target HLA-B*46:01. In words: IEDB peptide-MHC binding, purified MHC/competitive/fluorescence; filed as Kd, often an IC50 or EC50 that approximates it; ≥ and ≤ were set here for values at or beyond the usual limits of such assays.
Another assay deals with HLA-A*01:01. The assay is described as follows: IEDB peptide-MHC binding, purified MHC/competitive/fluorescence; ≥ and ≤ were set here for values at or beyond the usual limits of such assays. The settings on record: source organism: Homo sapiens.
In assay [9] the target is HLA-A*02:01. The assay is described as above. The settings on record: source organism: Homo sapiens.
The target in another assay is HLA-A*03:01. The assay is described as above. The settings on record: source organism: Homo sapiens.
The target of a further assay is HLA-A*11:01. The description is as above. To be noted: source organism: Homo sapiens.
Another assay concerns the target HLA-A*24:02. Described as above. The settings on record: source organism: Homo sapiens.
Another assay deals with HLA-A*25:01. The assay is described as above. The settings on record: source organism: Homo sapiens.
In assay [10] the target is HLA-A*29:02. The description is as above. The settings on record: source organism: Homo sapiens.
The target in the next assay is HLA-A*31:01. Described as above. The settings on record: source organism: Homo sapiens.
Assay [11] has as its target HLA-A*68:02. The assay is described as above. To be noted: source organism: Homo sapiens.
Assay [12] deals with HLA-B*07:02. Described as above. To be noted: source organism: Homo sapiens.
The next assay concerns the target HLA-B*08:01. The assay is described as above. To be noted: source organism: Homo sapiens.
The target of the next assay is HLA-B*14:02. The description is as above. To be noted: source organism: Homo sapiens.
The target in assay [13] is HLA-B*18:01. Described as above. To be noted: source organism: Homo sapiens.
The next assay concerns the target HLA-B*35:01. The assay is described as above. To be noted: source organism: Homo sapiens.
The target of the next assay is HLA-B*37:01. Described as above. The settings on record: source organism: Homo sapiens.
The target in a further assay is HLA-B*40:02. The description is as above. The settings on record: source organism: Homo sapiens.
In the next assay the target is HLA-B*44:03. The description is as above. To be noted: source organism: Homo sapiens.
For assay [14], the target named is HLA-B*51:01. The description is as above. To be noted: source organism: Homo sapiens.
The next assay deals with HLA-B*53:01. Described as above. The settings on record: source organism: Homo sapiens.
The target of assay [15] is HLA-B*58:01. The description is as above. To be noted: source organism: Homo sapiens.
In assay [16] the target is HLA-A*02:01. The assay is described as follows: IEDB peptide-MHC binding, purified MHC/competitive/fluorescence; filed as Kd, often an IC50 or EC50 that approximates it; ≥ and ≤ were set here for values at or beyond the usual limits of such assays. To be noted: source organism: Plesiomonas shigelloides.
The next assay deals with HLA-A*02:03. The assay is described as above. The settings on record: source organism: Plesiomonas shigelloides.
The target in a further assay is HLA-A*02:12. The description is as above. The settings on record: source organism: Plesiomonas shigelloides.
The next assay addresses HLA-A*02:16. The description is as above. The settings on record: source organism: Plesiomonas shigelloides.
A further assay addresses HLA-A*02:19. The description is as above. The settings on record: source organism: Plesiomonas shigelloides.
Assay [17] has as its target HLA-A*23:01. The description is as above. The settings on record: source organism: Plesiomonas shigelloides.
For assay [18], the target named is HLA-A*24:03. Described as above. To be noted: source organism: Plesiomonas shigelloides.
For the next assay, the target named is HLA-A*26:01. The description is as above. To be noted: source organism: Plesiomonas shigelloides.
Assay [19] addresses HLA-A*29:02. The description is as above. To be noted: source organism: Plesiomonas shigelloides.
For assay [20], the target named is HLA-A*68:02. The description is as above. To be noted: source organism: Plesiomonas shigelloides.
For the next assay, the target named is HLA-A*69:01. The assay is described as above. To be noted: source organism: Plesiomonas shigelloides.
The target of a further assay is HLA-A*80:01. The description is as above. The settings on record: source organism: Plesiomonas shigelloides.
For another assay, the target named is HLA-B*27:03. The description is as above. To be noted: source organism: Plesiomonas shigelloides.
The target in the next assay is HLA-B*39:01. The assay is described as above. To be noted: source organism: Plesiomonas shigelloides.
Assay [21] deals with HLA-B*51:01. The assay is described as above. To be noted: source organism: Plesiomonas shigelloides.
Assay [22] deals with HLA-B*57:01. The assay is described as above. To be noted: source organism: Plesiomonas shigelloides.

For the sequence ESMMGSTAM, the Kd with HLA-A*02:10, with HLA-A*02:11, in the assay with HLA-A*02:50, with HLA-A*23:01 [1], in the assay with HLA-A*24:03 [2] and with HLA-A*29:02 [3] was no less than 20 µM in each case. Besides, the dissociation constant (Kd) in the assay with HLA-A*30:01 is no less than 20 µM; with HLA-B*07:02 [4], 0.316 µM; with HLA-B*15:01, 0.031 µM; with HLA-B*18:01 [5], no less than 20 µM; in the assay with HLA-B*40:01 it was no less than 20 µM; in the assay with HLA-B*44:02 it was no less than 20 µM. Moreover, the Kd in the assay with HLA-B*51:01 [6] is no less than 20 µM; in the assay with HLA-B*57:01 [7] it was no less than 20 µM; in the assay with HLA-B*58:01 [8] it was no less than 20 µM; with HLA-B*46:01 (source organism: Escherichia coli str. K-12 substr. MG1655) it was 3 µM.

For the sequence YFYYNAFHWAI, the IC50 with HLA-A*01:01 is no less than 20 µM; in the assay with HLA-A*02:01 [9] it was 2.91 µM; with HLA-A*03:01, no less than 20 µM; with HLA-A*11:01, no less than 20 µM; in the assay with HLA-A*24:02, 1.13 µM; with HLA-A*25:01, no less than 20 µM. The IC50 is 0.661 µM in the assay with HLA-A*29:02 [10]; no less than 20 µM in the assay with HLA-A*31:01; 3.62 µM with HLA-A*68:02 [11]; no less than 20 µM in the assay with HLA-B*07:02 [12]; no less than 20 µM with HLA-B*08:01; 15.1 µM with HLA-B*14:02. Further, the half-maximal inhibitory concentration (IC50) with HLA-B*18:01 [13], with HLA-B*35:01, in the assay with HLA-B*37:01, with HLA-B*40:02, with HLA-B*44:03 and with HLA-B*51:01 [14] was no less than 20 µM in each case. Besides, the IC50 with HLA-B*53:01 and with HLA-B*58:01 [15] was no less than 20 µM in each case.

LLFRMILNY: the dissociation constant (Kd) with HLA-A*02:01 [16], with HLA-A*02:03, with HLA-A*02:12, in the assay with HLA-A*02:16, in the assay with HLA-A*02:19 and in the assay with HLA-A*23:01 [17] was no less than 20 µM in each case. In addition, the Kd was no less than 20 µM in the assay with HLA-A*24:03 [18]; no less than 20 µM with HLA-A*26:01; 0.005 µM with HLA-A*29:02 [19]; no less than 20 µM with HLA-A*68:02 [20]; no less than 20 µM in the assay with HLA-A*69:01; 0.0259 µM in the assay with HLA-A*80:01. Besides, the dissociation constant Kd with HLA-B*27:03, with HLA-B*39:01, in the assay with HLA-B*46:01 (source organism: Plesiomonas shigelloides), in the assay with HLA-B*51:01 [21] and in the assay with HLA-B*57:01 [22] was no less than 20 µM each time.

The values are drawn from the Immune Epitope Database (IEDB).
